From article PMC4150783

What was measured:
Pot1-DBD [1] = molecular target: T1, Pot1-DBD (Schizosaccharomyces pombe, UniProt O13988 1-339); assay: SEC-MALS
T1 sequence: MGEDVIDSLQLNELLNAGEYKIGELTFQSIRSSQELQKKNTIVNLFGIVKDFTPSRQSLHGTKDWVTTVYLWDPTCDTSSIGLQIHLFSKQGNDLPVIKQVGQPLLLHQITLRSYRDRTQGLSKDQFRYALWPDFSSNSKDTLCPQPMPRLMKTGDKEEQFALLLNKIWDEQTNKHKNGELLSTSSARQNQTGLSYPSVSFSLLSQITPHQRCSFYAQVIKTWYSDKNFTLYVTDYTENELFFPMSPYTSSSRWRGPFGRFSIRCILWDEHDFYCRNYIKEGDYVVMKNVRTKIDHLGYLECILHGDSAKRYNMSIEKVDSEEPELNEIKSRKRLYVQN

Pot1-DBD_Y224A = molecular target: T2, Pot1-DBD_Y224A (Schizosaccharomyces pombe, UniProt O13988 1-339, Y224A); assay: SEC-MALS
T2 sequence: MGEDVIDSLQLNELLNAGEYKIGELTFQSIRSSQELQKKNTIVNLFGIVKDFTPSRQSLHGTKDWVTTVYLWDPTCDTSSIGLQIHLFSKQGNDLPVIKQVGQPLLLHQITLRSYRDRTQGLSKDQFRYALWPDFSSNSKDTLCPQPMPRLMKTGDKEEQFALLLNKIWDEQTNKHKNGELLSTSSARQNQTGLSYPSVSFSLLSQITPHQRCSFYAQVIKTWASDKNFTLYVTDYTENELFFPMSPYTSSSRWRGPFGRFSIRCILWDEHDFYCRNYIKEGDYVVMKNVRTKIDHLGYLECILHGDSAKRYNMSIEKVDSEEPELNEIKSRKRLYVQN

Pot1-DBD [2] = molecular target: T1, Pot1-DBD; assay: NMR
Pot1pC = molecular target: T3, Pot1pC (Schizosaccharomyces pombe, UniProt O13988 198-339); assay: NMR
T3 sequence: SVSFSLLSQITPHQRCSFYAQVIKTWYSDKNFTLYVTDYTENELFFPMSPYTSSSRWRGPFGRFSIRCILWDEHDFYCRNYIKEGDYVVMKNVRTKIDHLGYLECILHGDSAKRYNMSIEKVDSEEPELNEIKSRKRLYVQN

Pot1pC_Y224A = molecular target: T4, Pot1pC_Y224A (Schizosaccharomyces pombe, UniProt O13988 198-339, Y224A); assay: ITC
T4 sequence: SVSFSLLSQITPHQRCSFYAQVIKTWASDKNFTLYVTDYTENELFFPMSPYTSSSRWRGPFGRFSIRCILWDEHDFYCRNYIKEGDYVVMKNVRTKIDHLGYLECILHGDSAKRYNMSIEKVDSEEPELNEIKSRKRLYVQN

Pot1pN = molecular target: T5, Pot1pN (Schizosaccharomyces pombe, UniProt O13988 1-187); assay: NMR
T5 sequence: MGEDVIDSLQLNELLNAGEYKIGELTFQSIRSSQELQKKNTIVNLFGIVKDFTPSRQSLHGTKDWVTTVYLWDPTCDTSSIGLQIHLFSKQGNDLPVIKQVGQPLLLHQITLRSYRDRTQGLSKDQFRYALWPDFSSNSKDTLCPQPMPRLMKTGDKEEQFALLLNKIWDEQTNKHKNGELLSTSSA

Pot1-DBD [3] = molecular target: T1, Pot1-DBD; assay: EMSA
Pot1-DBD [4] = molecular target: T1, Pot1-DBD; assay: SEC-MALS; remark: listed apart in the source

GGTTACGGTTACCGT (ssDNA) [15mer_G13C]
binding result (Pot1-DBD [1]): binds

GGTTACGGTTACGGT (ssDNA) [15mer]
binding result (Pot1-DBD_Y224A): binds | binding result (Pot1-DBD [2]): binds

GGTTACGGT (ssDNA) [9mer]
binding result (Pot1pC): binds | binding signal (Pot1pC_Y224A): ~10 fold weaker than Pot1pC wild type

GGTTAC (ssDNA) [6mer]
binding result (Pot1pN): binds

GGTTACGGTTAC (ssDNA) [12mer]
binding result (Pot1-DBD [3]): binds

GGTTACGGATAC (ssDNA) [12mer_T9A]
binding result (Pot1-DBD [4]): binds
